± gives the uncertainty stated by the source.
Test: self-splicing fitness, log relative to wild type (ln ratio); higher = more splicing; Tetrahymena group I intron in knt gene, E. coli kanamycin selection, DiMSum; sequences stand for … in CUCUCU…GGAGGGAAAAGUUAUCAGGCAUGCACCUGGUAGCUAGUCUUUAAACCAAUAGAUUGCAUCGGUUUAAAAGGCAAGACCGUCAAAUUGCGGGAAAGGGGUCAACAGCCGUUCAGUACCAAGUCUCAGGGGAAACUUUGAGAUGGCCUUGCAAAGGGUAUGGUAAUAAGCUGACGGACAUGGUCCUAACCACGCAGCCAAGUCCUAAGUCAACAGAUCUUCUGUUGAUAUGGAUGCAGUUCACAGACUAAAUGUCGGUCGGGGAAGAUGUAUUCUUCUCAUAAGAUAUAGUCGGACCUCUCCUUAAUGGGAGCUAGCGGAUGAAGUGAUGCAACACUGGAGCCGCUGGGAACUAAUUUGUAUGCGAAAGUAUAUUGAUUAGUUUUGGAGUACUCGUGGUCG
Procedure, shortened: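 Colonies from six replicate transformations of E. coli BL21(DE3) were pooled and amplicon-sequenced on an Illumina HiSeq 2500. The library placed an intron with all eight P1ex-region nucleotides randomised inside the knt kanamycin-resistance gene on pET-22b(+), and cells grew overnight at 37°C or 30°C on LB agar with or without 25 μg/mL kanamycin (plus 100 μg/mL carbenicillin, 50 μM IPTG, 0.2% rhamnose). Fitness is the DiMSum error-weighted combination of wild-type-normalised replicate fold changes, kanamycin versus none.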

| Sequence | self-splicing fitness (ln) (30 °C) | self-splicing fitness (ln) (37 °C) |
| --- | --- | --- |
| UAUCAGCAAUAUUACGUAAC | -1.48 ± 0.14 | -0.246 ± 0.16 |
| GCUAAGCAAUAUUACGUACG | -1.67 ± 0.1 | -1.13 ± 0.1 |
| UUCUAGCAAUAUUACGGCGG | -2.93 ± 0.16 | -1.28 ± 0.13 |
| CGAUAGCAAUAUUACGGCGA | -1.5 ± 0.25 | -1.11 ± 0.16 |
| AGUGAGCAAUAUUACGCGUU | -3.04 ± 0.19 | -2.18 ± 0.18 |
| AUUAAGCAAUAUUACGGCCU | -0.548 ± 0.1 | -0.318 ± 0.12 |
| GGGAAGCAAUAUUACGGCAC | 0.0244 ± 0.3 | -0.976 ± 0.36 |
| CACUAGCAAUAUUACGGACC |  | -1.8 ± 0.24 |
| GUAAAGCAAUAUUACGGUAG | -0.977 ± 0.054 | -1.37 ± 0.099 |
| GUGAAGCAAUAUUACGCUCU | -1.79 ± 0.12 | -0.652 ± 0.13 |
| AUGAAGCAAUAUUACGUAUA | -1.53 ± 0.11 | -0.647 ± 0.11 |
| CUGUAGCAAUAUUACGACCC | -1.04 ± 0.43 |  |
| UGAUAGCAAUAUUACGAUGA | -0.925 ± 0.15 | -0.791 ± 0.12 |
| GAUGAGCAAUAUUACGAGAU |  | -3.21 ± 0.47 |
| AUCUAGCAAUAUUACGAACG | -0.816 ± 0.12 | -0.644 ± 0.22 |
| UGCAAGCAAUAUUACGUAGU | -3.83 ± 0.18 | -2.42 ± 0.17 |
| ACGCAGCAAUAUUACGUAUU | -3.49 ± 0.32 | -2 ± 0.16 |
| CAUAAGCAAUAUUACGUCUG | -0.477 ± 0.065 | -0.45 ± 0.082 |
| CCAUAGCAAUAUUACGCGCG | -0.974 ± 0.091 | -0.0324 ± 0.1 |
| AUUAAGCAAUAUUACGUAGG | -2.34 ± 0.18 | -1.81 ± 0.29 |
| ACUAAGCAAUAUUACGCUAG | -2.68 ± 0.14 | -1.82 ± 0.17 |
| ACAAAGCAAUAUUACGUGUG | -1.91 ± 0.052 | -0.905 ± 0.057 |

| Sequence | self-splicing fitness (ln) (30 °C) | self-splicing fitness (ln) (37 °C) |
| --- | --- | --- |
| GGUAAGCAAUAUUACGACAC | -0.00191 ± 0.13 | 0.285 ± 0.19 |
| AGUAAGCAAUAUUACGCGGA | -3.49 ± 0.32 | -0.326 ± 0.11 |
| UCGUAGCAAUAUUACGGGGG | -3.07 ± 0.44 | -2 ± 0.47 |
| CACCAGCAAUAUUACGGCGC | -2.3 ± 0.11 | -1.5 ± 0.13 |
| UCUCAGCAAUAUUACGAGCG | -0.123 ± 0.091 | -0.0856 ± 0.1 |
| UGGCAGCAAUAUUACGAAGG | -2.93 ± 0.18 | -1.21 ± 0.23 |
| AUCUAGCAAUAUUACGAGUG | -1.41 ± 0.078 | -1.32 ± 0.12 |
| GGAGAGCAAUAUUACGUCUU | -4.08 ± 0.28 | -3.23 ± 0.38 |
| AUGCAGCAAUAUUACGCACC | -1.11 ± 0.18 | -0.696 ± 0.21 |
| CGACAGCAAUAUUACGAGUC | -4.97 ± 0.36 | -2.42 ± 0.24 |
| UUCUAGCAAUAUUACGUACC |  | -0.136 ± 0.48 |
| ACUCAGCAAUAUUACGAACA | -1.16 ± 0.076 | -0.892 ± 0.09 |
| UCGUAGCAAUAUUACGUUAG | -3.83 ± 0.3 | -2.1 ± 0.46 |
| UGAGAGCAAUAUUACGACAU | -3.847 ± 0.037 | -2.82 ± 0.048 |
| UGGGAGCAAUAUUACGAUGG | -2.64 ± 0.18 | -2.77 ± 0.48 |
| UGCGAGCAAUAUUACGCCAU |  | -2.45 ± 0.49 |
| UUUAAGCAAUAUUACGCUGG | -2.26 ± 0.21 | -0.317 ± 0.18 |
| CAACAGCAAUAUUACGGGAA | -2.48 ± 0.16 | -2.04 ± 0.14 |
| GCGAAGCAAUAUUACGUGUG | -2.61 ± 0.12 | -1.67 ± 0.11 |
| AAACAGCAAUAUUACGGGCA | -1.86 ± 0.1 | -1.24 ± 0.1 |
| CAUUAGCAAUAUUACGUAAU | -2.73 ± 0.19 | -1.96 ± 0.21 |
